# Results reported in publication PMC9352551, “Energetic determinants of animal cell polarity regulator Par-3 interaction with the Par complex” (The Journal of Biological Chemistry, 2022).
# T1: Par complex (his-Par-6, aPKC) (Drosophila, UniProt O97111 1-351; A1Z9X0 1-606)
# T1 construct: Par-6, Drosophila, residues 1-351; atypical protein kinase C (aPKC), Drosophila, residues 1-606; Construct as in PMID 32084408; also called full Par complex; source: HEK 293F, transfected (pCMV), purified (Ni-NTA or cobalt resin, Source Q anion exchange)
# T1 sequence (looked up) 1: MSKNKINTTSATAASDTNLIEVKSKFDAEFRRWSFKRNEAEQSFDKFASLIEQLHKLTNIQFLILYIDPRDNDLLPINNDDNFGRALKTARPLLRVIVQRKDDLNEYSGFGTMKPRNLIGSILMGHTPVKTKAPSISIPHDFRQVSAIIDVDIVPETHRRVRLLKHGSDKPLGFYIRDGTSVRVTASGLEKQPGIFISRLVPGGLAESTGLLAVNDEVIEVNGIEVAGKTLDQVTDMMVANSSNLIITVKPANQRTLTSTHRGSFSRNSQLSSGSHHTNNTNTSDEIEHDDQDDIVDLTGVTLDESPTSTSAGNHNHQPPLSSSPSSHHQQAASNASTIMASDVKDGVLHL
# T1 sequence (looked up) 2: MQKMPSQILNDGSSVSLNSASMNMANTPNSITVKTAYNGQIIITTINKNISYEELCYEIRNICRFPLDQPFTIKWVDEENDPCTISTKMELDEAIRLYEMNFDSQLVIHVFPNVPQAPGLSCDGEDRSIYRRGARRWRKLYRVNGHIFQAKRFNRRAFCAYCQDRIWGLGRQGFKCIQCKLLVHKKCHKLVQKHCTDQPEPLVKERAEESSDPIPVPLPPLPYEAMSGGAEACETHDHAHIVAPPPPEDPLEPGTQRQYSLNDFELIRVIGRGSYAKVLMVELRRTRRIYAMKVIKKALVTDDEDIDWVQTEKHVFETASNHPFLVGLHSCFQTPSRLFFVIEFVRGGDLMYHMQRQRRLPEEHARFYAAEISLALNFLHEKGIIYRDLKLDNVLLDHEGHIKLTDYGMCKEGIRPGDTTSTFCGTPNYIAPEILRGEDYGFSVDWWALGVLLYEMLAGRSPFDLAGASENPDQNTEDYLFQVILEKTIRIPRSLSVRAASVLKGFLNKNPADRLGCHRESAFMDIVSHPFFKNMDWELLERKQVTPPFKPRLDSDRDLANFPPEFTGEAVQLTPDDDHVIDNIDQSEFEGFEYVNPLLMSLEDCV
# T2: aPKC KD-PBM (Drosophila, UniProt A1Z9X0 259-606)
# T2 construct: From pBH; also called his aPKC kinase domain-PBM; aPKC kinase domain–PBM; source: E. coli BL21 (DE3), his-purified (Ni-NTA) partially under denaturing conditions (8 M urea)
# T2 sequence (looked up): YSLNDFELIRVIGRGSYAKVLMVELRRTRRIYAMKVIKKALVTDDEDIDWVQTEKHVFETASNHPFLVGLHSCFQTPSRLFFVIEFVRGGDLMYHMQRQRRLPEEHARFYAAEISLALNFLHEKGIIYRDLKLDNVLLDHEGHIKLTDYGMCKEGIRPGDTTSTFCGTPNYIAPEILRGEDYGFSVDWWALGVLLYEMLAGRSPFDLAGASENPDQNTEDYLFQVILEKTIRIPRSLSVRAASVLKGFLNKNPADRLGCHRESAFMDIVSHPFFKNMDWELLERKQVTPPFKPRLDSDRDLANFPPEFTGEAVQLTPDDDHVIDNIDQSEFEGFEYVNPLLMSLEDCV
# What was measured:
# Conditions in all cases: both partners purified
# [1] = target: T1, Par complex (his-Par-6, aPKC); assay: supernatant depletion assay; GST-fused protein on glutathione agarose resin (solid phase, 'ligand'); soluble protein ('receptor') left in the supernatant at equilibrium quantified on a Coomassie gel; 1 h at 20 °C; 10 mM Hepes pH 7.5, 100 mM NaCl, 1 mM DTT, 200 μM ATP, 5 mM MgCl2, 0.1% Tween-20; single-site equation; 'apparent' for Par-3 variants that could bind more than one Par complex; ATP replaced with ADP in one …
# aPKC KD-PBM [2] = target: T2, aPKC KD-PBM; assay: as above
# aPKC KD-PBM [3] = target: T2, aPKC KD-PBM; assay: pull-down; competition: GST-Par-3 PDZ2 or PDZ3 on glutathione resin with aPKC KD-PBM and the other PDZ domain as soluble competitor; room temperature, 30 to 60 min; 10 mM Hepes pH 7.5, 100 mM NaCl, 1 mM DTT, 200 μM ATP, 5 mM MgCl2, 0.1% Tween-20; Coomassie gel
# [4] = target: T1, Par complex (his-Par-6, aPKC); assay: supernatant depletion assay; MBP-Par-3 (C-terminal his-tag, his-purified) on amylose resin (solid phase); soluble protein left in the supernatant quantified on a Coomassie gel; 10 min at 20 °C; 10 mM Hepes pH 7.5, 100 mM NaCl, 1 mM DTT, 200 μM ATP, 5 mM MgCl2, 0.1% Tween-20; 'apparent'
binding result [1],binding result (aPKC KD-PBM [2]),binding result (aPKC KD-PBM [3]),binding result [4],Binder
binds,binds,,,"GST-Par-3 PDZ2 (domain or fragment, Drosophila, UniProt O96782 444-533, looked up, Par-3 (Bazooka), Drosophila, residues 444-533; From pGEX; also called GST fused Par-3 PDZ2) QIMLKKGPNGLGFSVTTRDNPAGAHCPIYIKNILPRGAAIEDGRLKPGDRLLEVDGTPMTGKTQTDVVAILRGMPAGATVRIVVSRQQEL"
,,binds,,"Par-3 PDZ2 (his-purified, soluble) (domain or fragment, Drosophila, UniProt O96782 444-533, looked up, Par-3 (Bazooka), Drosophila, residues 444-533; From pET19; also called soluble PDZ2; source: E. coli BL21 (DE3), his-purified) QIMLKKGPNGLGFSVTTRDNPAGAHCPIYIKNILPRGAAIEDGRLKPGDRLLEVDGTPMTGKTQTDVVAILRGMPAGATVRIVVSRQQEL"
binds,binds,,,"GST-Par-3 BR-PDZ2 (domain or fragment, Drosophila, UniProt O96782 426-533, looked up, Par-3 (Bazooka), Drosophila, residues 426-533 (basic region and PDZ2); From pGEX) PVGTSLQVANTRKLGRKIQIMLKKGPNGLGFSVTTRDNPAGAHCPIYIKNILPRGAAIEDGRLKPGDRLLEVDGTPMTGKTQTDVVAILRGMPAGATVRIVVSRQQEL"
,,,binds,"MBP-Par-3 PDZ1-APMΔPDZ2 (domain or fragment, Drosophila, UniProt O96782 309-987, looked up, Par-3 (Bazooka), Drosophila, residues 309-987 with residues 437-533 deleted; From pMAL; construct as in PMID 32084408; not shown: MBP, N-terminal, kept; His tag, C-terminal, kept) DGEMLLIINEYGSPLGLTALPDKEHGGGLLVQHVEPGSRAERGQLRRDDRILEINGIKLIGLTESQVQEQLRRALESSELRVRVLRGDRNRRQQRDSKVADMVEVATVSPTRKPHAAPVGTSLQVANTAEQADQPAEKSAGVAVAPSVAPPAVPAAAAPAPPIPVQKSSSARSLFTHQQQSQLNESQHFIDAGSESAASNDSLPPSSNSWHSREELTLHIPVHDTEKAGLGVSVKGKTCSNLNASGSSASSGSNGLMKHDGDLGIFVKNVIHGGAASRDGRLRMNDQLLSVNGVSLRGQNNAEAMETLRRAMVNTPGKHPGTITLLVGRKILRSASSSDILDHSNSHSHSHSNSSGGSNSNGSGNNNNSSSNASDNSGATVIYLSPEKREQRCNGGGGGGSAGNEMNRWSNPVLDRLTGGICSSNSAQPSSQQSHQQQPHPSQQQQQQRRLPAAPVCSSAALRNESYYMATNDNWSPAQMHLMTAHGNTALLIEDDAEPMSPTLPARPHDGQHCNTSSANPSQNLAVGNQGPPINTVPGTPSTSSNFDATYSSQLSLETNSGVEHFSRDALGRRSISEKHHA"

# Further lines, the binder ahead of its results:
Binder,binding result [1],binding result (aPKC KD-PBM [2]),binding result (aPKC KD-PBM [3]),binding result [4]
"GST-Par-3 PDZ1-2 (domain or fragment, Drosophila, UniProt O96782 309-533, looked up, Par-3 (Bazooka), Drosophila, residues 309-533; From pGEX) DGEMLLIINEYGSPLGLTALPDKEHGGGLLVQHVEPGSRAERGQLRRDDRILEINGIKLIGLTESQVQEQLRRALESSELRVRVLRGDRNRRQQRDSKVADMVEVATVSPTRKPHAAPVGTSLQVANTRKLGRKIQIMLKKGPNGLGFSVTTRDNPAGAHCPIYIKNILPRGAAIEDGRLKPGDRLLEVDGTPMTGKTQTDVVAILRGMPAGATVRIVVSRQQEL",binds,binds,,
"GST-Par-3 PDZ1-3 (domain or fragment, Drosophila, UniProt O96782 309-741, looked up, Par-3 (Bazooka), Drosophila, residues 309-741; From pGEX; also called Par-3 fragment containing its three PDZ domains) DGEMLLIINEYGSPLGLTALPDKEHGGGLLVQHVEPGSRAERGQLRRDDRILEINGIKLIGLTESQVQEQLRRALESSELRVRVLRGDRNRRQQRDSKVADMVEVATVSPTRKPHAAPVGTSLQVANTRKLGRKIQIMLKKGPNGLGFSVTTRDNPAGAHCPIYIKNILPRGAAIEDGRLKPGDRLLEVDGTPMTGKTQTDVVAILRGMPAGATVRIVVSRQQELAEQADQPAEKSAGVAVAPSVAPPAVPAAAAPAPPIPVQKSSSARSLFTHQQQSQLNESQHFIDAGSESAASNDSLPPSSNSWHSREELTLHIPVHDTEKAGLGVSVKGKTCSNLNASGSSASSGSNGLMKHDGDLGIFVKNVIHGGAASRDGRLRMNDQLLSVNGVSLRGQNNAEAMETLRRAMVNTPGKHPGTITLLVGRKILRSAS",binds,,,
"GST-Par-3 PDZ3 (domain or fragment, Drosophila, UniProt O96782 616-741, looked up, Par-3 (Bazooka), Drosophila, residues 616-741; From pGEX; also called GST fused Par-3 PDZ3) HSREELTLHIPVHDTEKAGLGVSVKGKTCSNLNASGSSASSGSNGLMKHDGDLGIFVKNVIHGGAASRDGRLRMNDQLLSVNGVSLRGQNNAEAMETLRRAMVNTPGKHPGTITLLVGRKILRSAS",binds,binds,,
"Par-3 PDZ3 (his-purified, soluble) (domain or fragment, Drosophila, UniProt O96782 616-741, looked up, Par-3 (Bazooka), Drosophila, residues 616-741; From pET19; source: E. coli BL21 (DE3), his-purified) HSREELTLHIPVHDTEKAGLGVSVKGKTCSNLNASGSSASSGSNGLMKHDGDLGIFVKNVIHGGAASRDGRLRMNDQLLSVNGVSLRGQNNAEAMETLRRAMVNTPGKHPGTITLLVGRKILRSAS",,,binds,
"GST-Par-3 PDZ2-3 (domain or fragment, Drosophila, UniProt O96782 444-741, looked up, Par-3 (Bazooka), Drosophila, residues 444-741; From pGEX) QIMLKKGPNGLGFSVTTRDNPAGAHCPIYIKNILPRGAAIEDGRLKPGDRLLEVDGTPMTGKTQTDVVAILRGMPAGATVRIVVSRQQELAEQADQPAEKSAGVAVAPSVAPPAVPAAAAPAPPIPVQKSSSARSLFTHQQQSQLNESQHFIDAGSESAASNDSLPPSSNSWHSREELTLHIPVHDTEKAGLGVSVKGKTCSNLNASGSSASSGSNGLMKHDGDLGIFVKNVIHGGAASRDGRLRMNDQLLSVNGVSLRGQNNAEAMETLRRAMVNTPGKHPGTITLLVGRKILRSAS",binds,binds,,
"GST-Par-3 BR-PDZ2-3 (domain or fragment, Drosophila, UniProt O96782 426-741, looked up, Par-3 (Bazooka), Drosophila, residues 426-741; From pGEX) PVGTSLQVANTRKLGRKIQIMLKKGPNGLGFSVTTRDNPAGAHCPIYIKNILPRGAAIEDGRLKPGDRLLEVDGTPMTGKTQTDVVAILRGMPAGATVRIVVSRQQELAEQADQPAEKSAGVAVAPSVAPPAVPAAAAPAPPIPVQKSSSARSLFTHQQQSQLNESQHFIDAGSESAASNDSLPPSSNSWHSREELTLHIPVHDTEKAGLGVSVKGKTCSNLNASGSSASSGSNGLMKHDGDLGIFVKNVIHGGAASRDGRLRMNDQLLSVNGVSLRGQNNAEAMETLRRAMVNTPGKHPGTITLLVGRKILRSAS",binds,binds,,
